From patent US20080293923A1 (Genentech, published 2008) come the findings set out here.

For the test, the target named is T1, hepatocyte growth factor beta chain (HGF β) containing a Cys604 to Ser mutation (human, UniProt P14210 495-728).
T1 construct: Expressed in insect cells (baculovirus secretion vector pAcGP67), Val495 placed immediately after the secretion signal; Numbering follows full length HGF starting with MWV as 1-3; also called HGF β-chain; HGF-beta
The experiment in a line: complex formation in solution, size exclusion chromatography. On the procedure: Elution fractions were assayed with SDS-PAGE, and those containing the complex were pooled. […] For this, Met, previously purified using Nickel chromatography as described above, was mixed with a combination of PNGase F (Roche) and Endoglycosidase A (Roche) at 1:100 enzyme:Met concentration and incubated at room temperature for 3 hours.
A general note: Size exclusion chromatography separates by hydrodynamic size, large species first.

T1 sequence (P14210 other isoform, or with tags, fused parts or gaps limits assumed): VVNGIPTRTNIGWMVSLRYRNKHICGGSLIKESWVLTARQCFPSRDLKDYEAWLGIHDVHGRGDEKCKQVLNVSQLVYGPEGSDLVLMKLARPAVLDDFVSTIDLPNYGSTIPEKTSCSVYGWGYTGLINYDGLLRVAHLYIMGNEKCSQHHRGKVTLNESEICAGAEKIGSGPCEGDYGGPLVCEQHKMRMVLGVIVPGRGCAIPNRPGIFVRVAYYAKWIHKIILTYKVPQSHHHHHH

B1: extracellular fragment of the Met receptor containing residues 25 to 567 (Sema and PSI domain) with thrombin cleavable site and C-terminal (His)8-tag (receptor)
chain: ECKEALAKSEMNVNMKYQLPNFTAETPIQNVILHEHHIFLGATNYIYVLNEEDLQKVAEYKTGPVLEHPDCFPCQDCSSKANLSGGVWKDNINMALVVDTYYDDQLISCGSVNRGTCQRHVFPHNHTADIQSEVHCIFSPQIEEPSQCPDCVVSALGAKVLSSVKDRFINFFVGNTINSSYFPDHPLHSISVRRLKETKDGFMFLTDQSYIDVLPEFRDSYPIKYVHAFESNNFIYFLTVQRETLDAQTFHTRIIRFCSINSGLHSYMEMPLECILTELVPRGSTKKEVFNILQAAYVSKPGAQLARQIGASLNDDILFGVFAQSKPDSAEPMDRSAMCAFPIKYVNDFFNKIVNKNNVRCLQHFYGPNHEHCFNRTLLRNSSGCEARRDEYRTEFTTALQRVDLFMGQFSEVLLTSISTFIKGDLTIANLGTSEGRFMQVVVSRSGPSTPHVNFLLDSHPVSPEVIVEHTLNQNGYTLVITGKKITKIPLNGLGCRHFQSCSQCLSAPPFVQCGWCHDKCVRSEECLSGTWTQQICLPAIYKHHHHHHHH
notes: Expressed in insect cells (pAcGP67A); The complex was obtained with the unprocessed, single chain Met (not cut by thrombin); For better diffraction Met was deglycosylated with PNGase F and Endoglycosidase A before complex formation; also called Met fragment; Met Sema domain
For B1, the binding result is “binds”.
